# Source: patent US20120316071A1 (published 2012)
# Numbering of substitutions follows the chain as printed. Names and notes keep the numbering of the source.
# B1: Fab VH5-51_IGHD5-18*01>3_IGHJ4*01 G100K/G104T F29A & V3-4_IGLJ1*01 (Fab, V domains shown)
# VH: EVQLVQSGAEVKKPGESLKISCKGSGYSATSYWIGWVRQMPGKGLEWMGIIYPGDSDTRYSPSFQGQVTISADKSISTAYLQWSSLKASDTAMYYCARRKYSYTYDYFDYWGQGTLVTVSS
# VL: QTVVTQEPSFSVSPGGTVTLTCGLSSGSVSTSYYPSWYQQTPGQAPRTLIYSTNTRSSGVPDRFSGSILGNKAALTITGAQADDESDYYCVLYMGSGISYVFGTGTKVTVL
# notes: Fab made in E. coli; VH cloned into Plasmid A (CH1, His6 and Flag tags), lambda VL into Plasmid E (lambda CL); also called KT F29A
# B2: Fab VH5-51_IGHD5-18*01>3_IGHJ4*01 G100K/G104T G35A & V3-4_IGLJ1*01 (Fab, V domains shown)
# VH: B1 VH with A29F, G35A
# VL: B1 VL
# notes: Fab made in E. coli; VH cloned into Plasmid A (CH1, His6 and Flag tags), lambda VL into Plasmid E (lambda CL); also called KT G35A
# B3: Fab VH5-51_IGHD5-18*01>3_IGHJ4*01 G100K/G104T I34A & V3-4_IGLJ1*01 (Fab, V domains shown)
# VH: B1 VH with A29F, I34A
# VL: B1 VL
# notes: Fab made in E. coli; VH cloned into Plasmid A (CH1, His6 and Flag tags), lambda VL into Plasmid E (lambda CL); also called KT I34A
# B4: Fab VH5-51_IGHD5-18*01>3_IGHJ4*01 G100K/G104T S28A & V3-4_IGLJ1*01 (Fab, V domains shown)
# VH: B1 VH with S28A, A29F
# VL: B1 VL
# notes: Fab made in E. coli; VH cloned into Plasmid A (CH1, His6 and Flag tags), lambda VL into Plasmid E (lambda CL); also called KT S28A
# B5: Fab VH5-51_IGHD5-18*01>3_IGHJ4*01 G100K/G104T T30A & V3-4_IGLJ1*01 (Fab, V domains shown)
# VH: B1 VH with A29F, T30A
# VL: B1 VL
# notes: Fab made in E. coli; VH cloned into Plasmid A (CH1, His6 and Flag tags), lambda VL into Plasmid E (lambda CL); also called KT T30A
# Key:
# [1] = molecular target: T1, rHuman EGF R/Fc Chimera, CF (R&D Systems Cat#344-ER) (human, UniProt P00533 25-645); assay: MSD Multispot ECL, antigen spotted on plate, Fab in solution; blank spot of the row 337
# T1 construct: Bought recombinant Fc chimera; also called epidermal growth factor receptor; Fc part of the bought chimera not given
# [2] = molecular target: T2, rHuman HGF R/c-MET/Fc Chimera, CF (R&D Systems Cat#358-MT/CF) (human, UniProt P08581 25-932); assay: as above
# T2 construct: Bought recombinant Fc chimera; also called HGF R/Fc; hepatocyte growth factor receptor; Fc part of the bought chimera not given
# T2 sequence (P08581 25-932, change not shown): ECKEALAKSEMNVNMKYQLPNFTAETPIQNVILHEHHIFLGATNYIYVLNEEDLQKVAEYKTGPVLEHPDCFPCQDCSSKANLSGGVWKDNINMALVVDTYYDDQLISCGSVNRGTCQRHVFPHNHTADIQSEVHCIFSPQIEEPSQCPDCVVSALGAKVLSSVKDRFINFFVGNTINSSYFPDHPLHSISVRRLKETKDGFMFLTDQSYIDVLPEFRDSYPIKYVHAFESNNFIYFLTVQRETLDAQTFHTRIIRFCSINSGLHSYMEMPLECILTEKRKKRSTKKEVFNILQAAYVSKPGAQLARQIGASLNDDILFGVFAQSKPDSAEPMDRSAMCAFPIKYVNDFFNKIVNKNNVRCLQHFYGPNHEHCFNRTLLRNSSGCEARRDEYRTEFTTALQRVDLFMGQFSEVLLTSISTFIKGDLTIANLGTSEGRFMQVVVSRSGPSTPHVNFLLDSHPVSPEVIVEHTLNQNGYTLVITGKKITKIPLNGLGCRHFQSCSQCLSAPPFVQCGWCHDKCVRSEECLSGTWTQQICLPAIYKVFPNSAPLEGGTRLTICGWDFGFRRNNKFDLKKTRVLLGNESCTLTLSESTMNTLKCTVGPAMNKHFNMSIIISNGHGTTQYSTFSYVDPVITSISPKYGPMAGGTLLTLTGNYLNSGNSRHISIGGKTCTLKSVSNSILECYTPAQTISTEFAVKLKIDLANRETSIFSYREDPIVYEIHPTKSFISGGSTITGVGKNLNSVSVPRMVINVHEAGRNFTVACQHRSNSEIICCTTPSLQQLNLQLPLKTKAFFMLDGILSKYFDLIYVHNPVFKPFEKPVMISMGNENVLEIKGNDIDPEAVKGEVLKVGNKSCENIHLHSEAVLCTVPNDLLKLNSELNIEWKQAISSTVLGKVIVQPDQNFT
# [3] = molecular target: T3, rHuman Notch-1/Fc Chimera, CF (R&D Systems Cat#3647-TK) (human, UniProt P46531 19-526); assay: as above
# T3 construct: Bought recombinant Fc chimera; Fc part of the bought chimera not given
# [4] = molecular target: T4, rHuman CD44/Fc Chimera, CF (R&D Systems Cat#3660-CD) (human, UniProt P16070 21-220); assay: as above
# T4 construct: Bought recombinant Fc chimera; Fc part of the bought chimera not given
# [5] = molecular target: T5, rHuman P-Cadherin/Fc Chimera, CF (R&D Systems Cat#861-PC) (human, UniProt P22223 108-654); assay: as above
# T5 construct: Bought recombinant Fc chimera; Fc part of the bought chimera not given
# [6] = molecular target: T6, rHuman Erythropoietin R/Fc Chimera, CF (R&D Systems Cat#963-ER) (human, UniProt P19235 25-250); assay: as above
# T6 construct: Bought recombinant Fc chimera; also called EPO R; EPO R/Fc; Fc part of the bought chimera not given
# T6 sequence (looked up): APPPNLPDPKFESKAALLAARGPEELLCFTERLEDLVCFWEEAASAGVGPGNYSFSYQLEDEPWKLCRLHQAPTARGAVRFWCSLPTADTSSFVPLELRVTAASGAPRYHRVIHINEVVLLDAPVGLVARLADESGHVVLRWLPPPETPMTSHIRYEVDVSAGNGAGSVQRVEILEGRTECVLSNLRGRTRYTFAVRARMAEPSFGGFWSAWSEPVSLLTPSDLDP
# [7] = molecular target: T7, Recombinant Human DLL4 (R&D Systems Cat#1506-D4/CF) (human, UniProt Q9NR61 27-524); assay: as above
# T7 construct: Bought recombinant protein; also called delta-like protein 4; Delta-like 4
# [8] = molecular target: T1, rHuman EGF R/Fc Chimera, CF (R&D …); assay: MSD Multispot ECL, antigen spotted on plate, Fab in solution; blank spot of the row 297
# [9] = molecular target: T2, rHuman HGF R/c-MET/Fc Chimera, CF (R&D …); assay: as above
# [10] = molecular target: T3, rHuman Notch-1/Fc Chimera, CF (R&D …); assay: as above
# [11] = molecular target: T5, rHuman P-Cadherin/Fc Chimera, CF (R&D …); assay: as above
# [12] = molecular target: T6, rHuman Erythropoietin R/Fc Chimera, CF …; assay: as above
# [13] = molecular target: T7, Recombinant Human DLL4 (R&D Systems …); assay: as above
# [14] = molecular target: T1, rHuman EGF R/Fc Chimera, CF (R&D …); assay: MSD Multispot ECL, antigen spotted on plate, Fab in solution; blank spot of the row 300
# [15] = molecular target: T2, rHuman HGF R/c-MET/Fc Chimera, CF (R&D …); assay: as above
# [16] = molecular target: T3, rHuman Notch-1/Fc Chimera, CF (R&D …); assay: as above
# [17] = molecular target: T5, rHuman P-Cadherin/Fc Chimera, CF (R&D …); assay: as above
# [18] = molecular target: T6, rHuman Erythropoietin R/Fc Chimera, CF …; assay: as above
# [19] = molecular target: T1, rHuman EGF R/Fc Chimera, CF (R&D …); assay: MSD Multispot ECL, antigen spotted on plate, Fab in solution; blank spot of the row 316
# [20] = molecular target: T2, rHuman HGF R/c-MET/Fc Chimera, CF (R&D …); assay: as above
# [21] = molecular target: T3, rHuman Notch-1/Fc Chimera, CF (R&D …); assay: as above
# [22] = molecular target: T4, rHuman CD44/Fc Chimera, CF (R&D Systems …); assay: as above
# [23] = molecular target: T5, rHuman P-Cadherin/Fc Chimera, CF (R&D …); assay: as above
# [24] = molecular target: T6, rHuman Erythropoietin R/Fc Chimera, CF …; assay: as above
# [25] = molecular target: T7, Recombinant Human DLL4 (R&D Systems …); assay: as above
# [26] = molecular target: T1, rHuman EGF R/Fc Chimera, CF (R&D …); assay: MSD Multispot ECL, antigen spotted on plate, Fab in solution; blank spot of the row 351
# [27] = molecular target: T2, rHuman HGF R/c-MET/Fc Chimera, CF (R&D …); assay: as above
# [28] = molecular target: T3, rHuman Notch-1/Fc Chimera, CF (R&D …); assay: as above
# [29] = molecular target: T4, rHuman CD44/Fc Chimera, CF (R&D Systems …); assay: as above
# [30] = molecular target: T5, rHuman P-Cadherin/Fc Chimera, CF (R&D …); assay: as above
# [31] = molecular target: T6, rHuman Erythropoietin R/Fc Chimera, CF …; assay: as above
# [32] = molecular target: T7, Recombinant Human DLL4 (R&D Systems …); assay: as above
binder,measurement,setting,value
B1,ECL signal,[1],887
same,ECL signal,[2],985
same,ECL signal,[3],601
same,ECL signal,[4],621
same,ECL signal,[5],502
same,ECL signal,[6],586
same,ECL signal,[7],22900
B2,ECL signal,[8],760
same,ECL signal,[9],939
same,ECL signal,[10],400
same,ECL signal,[11],305
same,ECL signal,[12],506
same,ECL signal,[13],53600
B3,ECL signal,[14],883
same,ECL signal,[15],1080
same,ECL signal,[16],564
same,ECL signal,[17],349
same,ECL signal,[18],505
B4,ECL signal,[19],839
same,ECL signal,[20],1040
same,ECL signal,[21],432
same,ECL signal,[22],497
same,ECL signal,[23],317
same,ECL signal,[24],586
same,ECL signal,[25],35400
B5,ECL signal,[26],853
same,ECL signal,[27],868
same,ECL signal,[28],539
same,ECL signal,[29],698
same,ECL signal,[30],438
same,ECL signal,[31],553
same,ECL signal,[32],24300
